The values that follow come from patent publication US20260347484 (published 2026).

For this experiment, the target named is human IGF-1R (human, UniProt P08069). The experiment is described as follows: BLI.

B1: PHP1003-3 (designed binder)
chain 1: QVQLQQSGPGLVKPSQTLSLTCTVSGWSISGGWLWNWIRQPPGKGLQWIGWISWDGTNNWKPSLKDRVTISVDTSKNQFSLKLSSVTAADTAVWWCARWGRVFFDWWGQGTLVTVSS
chain 2: DIVMTQSPLSLPVTPGQPASISCRSSQSIVHSNGNTWLQWWLQKPGQSPQLLIWKVSNRLWGVPDRFSGSGSGTDFTLKISRVQAQDVGVWWCFQGSHVPWTFGQGTKVQIK
B1 returned a Kd of 1.85 nM.

The term Kd denotes the constant that tells how readily two partners part at equilibrium. Read a low Kd as higher affinity.
